Measurements: US20230357367A1
Where two headings read alike, the source gives them in different places.

Columns and labels:
Assay in all cases: cell-based or functional assay
[1] = target: spike (SARS-CoV-2, XBB.1.5) (SARS-CoV-2)
[2] = target: spike (SARS-CoV-2, B.1.617.2, Delta) (SARS-CoV-2)
[3] = target: spike (SARS-CoV-2, BQ.1.1) (SARS-CoV-2)
[4] = target: spike (SARS-CoV-2, XBB.1.5) (SARS-CoV-2); remark: listed apart in the source
[5] = target: spike (SARS-CoV-2, B.1.617.2, Delta) (SARS-CoV-2); remark: listed apart in the source
[6] = target: spike (SARS-CoV-2, BQ.1.1) (SARS-CoV-2); remark: listed apart in the source
[7] = target: spike (SARS-CoV-2, XBB.1.5) (SARS-CoV-2); remark: listed apart in the source
[8] = target: spike (SARS-CoV-2, B.1.617.2, Delta) (SARS-CoV-2); remark: listed apart in the source
[9] = target: spike (SARS-CoV-2, BQ.1.1) (SARS-CoV-2); remark: listed apart in the source
[10] = target: spike (SARS-CoV-2, BA.2) (SARS-CoV-2)
[11] = target: spike (SARS-CoV-2, XBB.1.5) (SARS-CoV-2); remark: listed apart in the source
[12] = target: spike (SARS-CoV-2, B.1.617.2, Delta) (SARS-CoV-2); remark: listed apart in the source
[13] = target: spike (SARS-CoV-2, BQ.1.1) (SARS-CoV-2); remark: listed apart in the source
[14] = target: SARS-CoV-2 Omicron BA.2 Spike on pseudovirus (SARS-CoV-2)
[15] = target: SARS-CoV-2 Omicron BA.1 Spike on virus particles (SARS-CoV-2)
[16] = target: SARS-CoV-2 Omicron BA.2.12.1 Spike on pseudovirus (SARS-CoV-2)
[17] = target: SARS-CoV-2 Delta Spike on virus particles (SARS-CoV-2)
[18] = target: SARS-CoV-2 Omicron BA.2 Spike on pseudovirus (SARS-CoV-2); remark: listed apart in the source
[19] = target: SARS-CoV-2 Omicron BA.1 Spike on virus particles (SARS-CoV-2); remark: listed apart in the source
[20] = target: SARS-CoV-2 Omicron BA.4/5 Spike on pseudovirus (SARS-CoV-2)
[21] = target: SARS-CoV-2 Omicron BA.2.12.1 Spike on pseudovirus (SARS-CoV-2); remark: listed apart in the source
[22] = target: SARS-CoV-2 Delta Spike on virus particles (SARS-CoV-2); remark: listed apart in the source
[23] = target: SARS-CoV-2 Omicron BA.4/5 Spike on pseudovirus (SARS-CoV-2); remark: listed apart in the source
[24] = target: spike (SARS-CoV-2, BA.4/5) (SARS-CoV-2)
[25] = target: spike (SARS-CoV-2, BF.7.14) (SARS-CoV-2)
[26] = target: spike (SARS-CoV-2, BN.1) (SARS-CoV-2)
[27] = target: spike (SARS-CoV-2, BA.1) (SARS-CoV-2)
[28] = target: spike (SARS-CoV-2, XBB.1.5) (SARS-CoV-2); remark: listed apart in the source
[29] = target: spike (SARS-CoV-2, BA.4.6) (SARS-CoV-2)
[30] = target: spike (SARS-CoV-2, B.1.617.2, Delta) (SARS-CoV-2); remark: listed apart in the source
[31] = target: spike (SARS-CoV-2, CH.1.1) (SARS-CoV-2)
[32] = target: spike (SARS-CoV-2, BA.1.1) (SARS-CoV-2)
[33] = target: spike (SARS-CoV-2, BA.2.12.1) (SARS-CoV-2)
[34] = target: spike (SARS-CoV-2, BQ.1) (SARS-CoV-2)
[35] = target: spike (SARS-CoV-2, BF.7) (SARS-CoV-2)
[36] = target: spike (SARS-CoV-2, BA.2.75.2) (SARS-CoV-2)
[37] = target: spike (SARS-CoV-2, BA.2.3.20) (SARS-CoV-2)
[38] = target: spike (SARS-CoV-2, BA.2.75) (SARS-CoV-2)
[39] = target: spike (SARS-CoV-2, BQ.1.1) (SARS-CoV-2); remark: listed apart in the source
[40] = target: spike (SARS-CoV-2, XBB.1) (SARS-CoV-2)

## sotrovimab VH/VL-huIgG1-LS (antibody)
[1]
  EC90, pseudovirus neutralization, Vero E6, with isotype: 1500 ng/mL
[2]
  EC90, pseudovirus neutralization, Vero E6, with isotype: 110 ng/mL
[3]
  EC90, pseudovirus neutralization, Vero E6, with isotype: 9600 ng/mL
[4]
  Emax, pseudovirus neutralization, Vero E6, with isotype (% neutralization): 93.4
[5]
  Emax, pseudovirus neutralization, Vero E6, with isotype (% neutralization): 96.9
[6]
  Emax, pseudovirus neutralization, Vero E6, with isotype (% neutralization): 71.9
[7]
  EC80, pseudovirus neutralization, Vero E6, with isotype: 680 ng/mL
[8]
  EC80, pseudovirus neutralization, Vero E6, with isotype: 42 ng/mL
[9]
  EC80, pseudovirus neutralization, Vero E6, with isotype: 4400 ng/mL
[10]
  EC50, pseudovirus neutralization, Vero E6: 851 ng/mL
[11]
  EC50, pseudovirus neutralization, Vero E6, with isotype: 170 ng/mL
[12]
  EC50, pseudovirus neutralization, Vero E6, with isotype: 7.9 ng/mL
[13]
  EC50, pseudovirus neutralization, Vero E6, with isotype: 1200 ng/mL

## AZD8895 (antibody)
[14]
  IC50, pseudovirus neutralization: 608 ng/mL
[15]
  IC50, pseudovirus neutralization: 1160 ng/mL
[16]
  IC50, pseudovirus neutralization: 415 ng/mL
[17]
  IC50, pseudovirus neutralization: 0.5 ng/mL
[18]
  % neutralization at 4.5 µg/ml, pseudovirus: 93.9%
[19]
  % neutralization at 4.5 µg/ml, pseudovirus: 96.5%
[20]
  % neutralization at 4.5 µg/ml, pseudovirus: 25.8%
[21]
  % neutralization at 4.5 µg/ml, pseudovirus: 94.2%
[22]
  % neutralization at 4.5 µg/ml, pseudovirus: 102%

## AZD1061 (antibody)
[14]
  IC50, pseudovirus neutralization: 5.8 ng/mL
[15]
  IC50, pseudovirus neutralization: 1220 ng/mL
[23]
  IC50, pseudovirus neutralization: 41.2 ng/mL
[16]
  IC50, pseudovirus neutralization: 5.1 ng/mL
[17]
  IC50, pseudovirus neutralization: 5.9 ng/mL
[18]
  % neutralization at 4.5 µg/ml, pseudovirus: 99.7%
[19]
  % neutralization at 4.5 µg/ml, pseudovirus: 83.9%
[20]
  % neutralization at 4.5 µg/ml, pseudovirus: 96.7%
[21]
  % neutralization at 4.5 µg/ml, pseudovirus: 99.8%
[22]
  % neutralization at 4.5 µg/ml, pseudovirus: 100%

## Bebtelovimab (antibody)
[20]
  Neutralization - IC50, pseudovirus: 0.3 ng/mL

## sotrovimab VH/VL-hamIgG2a (antibody)
[10]
  EC50, pseudovirus neutralization, Vero E6: 361 ng/mL

## Sotrovimab VH/VL (human IgG1 molecule expressing the same variable regions of Sotrovimab) (antibody)
[14]
  IC50, pseudovirus neutralization: 392 ng/mL
[15]
  IC50, pseudovirus neutralization: 63.3 ng/mL
[23]
  IC50, pseudovirus neutralization: 666 ng/mL
[16]
  IC50, pseudovirus neutralization: 714 ng/mL
[17]
  IC50, pseudovirus neutralization: 12.3 ng/mL
[18]
  % neutralization at 4.5 µg/ml, pseudovirus: 73.1%
  IC50, pseudovirus neutralization: 704 ng/mL
[19]
  % neutralization at 4.5 µg/ml, pseudovirus: 99.4%
  IC50, live virus neutralization: 410 ng/mL
[20]
  % neutralization at 4.5 µg/ml, pseudovirus: 60.5%
  IC50, pseudovirus neutralization: > 4500 ng/mL
  Neutralization - IC50, pseudovirus: 424 ng/mL
[21]
  % neutralization at 4.5 µg/ml, pseudovirus: 76.9%
  IC50, pseudovirus neutralization: 1200 ng/mL
[22]
  % neutralization at 4.5 µg/ml, pseudovirus: 101%
  IC50, live virus neutralization: 57.9 ng/mL
  IC50, pseudovirus neutralization: 65 ng/mL

## bebtelovimab (antibody)
[2]
  EC90, pseudovirus neutralization, Vero E6, with isotype: 12 ng/mL
[4]
  Emax, pseudovirus neutralization, Vero E6, with isotype (% neutralization): 0.55
[5]
  Emax, pseudovirus neutralization, Vero E6, with isotype (% neutralization): 99.7
[6]
  Emax, pseudovirus neutralization, Vero E6, with isotype (% neutralization): 55.6
[8]
  EC80, pseudovirus neutralization, Vero E6, with isotype: 3.5 ng/mL
[10]
  EC50, pseudovirus neutralization: 0.2 ng/mL
  EC80, pseudovirus neutralization: 1.4 ng/mL
  EC90, pseudovirus neutralization: 4.4 ng/mL
  Emax, pseudovirus neutralization (% neutralization): 99.9
[24]
  EC50, pseudovirus neutralization: 0.073 ng/mL
  EC80, pseudovirus neutralization: 1.2 ng/mL
  EC90, pseudovirus neutralization: 6.4 ng/mL
  Emax, pseudovirus neutralization (% neutralization): 99.8
[25]
  EC50, pseudovirus neutralization: 0.22 ng/mL
  EC80, pseudovirus neutralization: 1.4 ng/mL
  EC90, pseudovirus neutralization: 4.1 ng/mL
  Emax, pseudovirus neutralization (% neutralization): 99.8
[26]
  EC50, pseudovirus neutralization: 0.467 ng/mL
  EC80, pseudovirus neutralization: 5.3 ng/mL
  EC90, pseudovirus neutralization: 22 ng/mL
  Emax, pseudovirus neutralization (% neutralization): 99.4
[27]
  EC50, pseudovirus neutralization: 0.17 ng/mL
  EC80, pseudovirus neutralization: 1.8 ng/mL
  EC90, pseudovirus neutralization: 7.2 ng/mL
  Emax, pseudovirus neutralization (% neutralization): 99.8
[28]
  Emax, pseudovirus neutralization (% neutralization): 2.01
  Emax, pseudovirus neutralization, TMPRSS2-Vero E6, with isotype (% neutralization): 2.93
  Emax, pseudovirus neutralization, Vero E6, with isotype (% neutralization): 4.21
[29]
  EC50, pseudovirus neutralization: 0.2 ng/mL
  EC80, pseudovirus neutralization: 2.5 ng/mL
  EC90, pseudovirus neutralization: 11 ng/mL
  Emax, pseudovirus neutralization (% neutralization): 99.6
[30]
  EC50, live virus neutralization: 4.6 ng/mL
  EC50, pseudovirus neutralization: 3.8 ng/mL
  EC50, pseudovirus neutralization, TMPRSS2-Vero E6, with isotype: 1.6 ng/mL
  EC50, pseudovirus neutralization, Vero E6, with isotype: 0.63 ng/mL
  EC80, pseudovirus neutralization: 23 ng/mL
  EC80, pseudovirus neutralization, TMPRSS2-Vero E6, with isotype: 13 ng/mL
  EC80, pseudovirus neutralization, Vero E6, with isotype: 4.2 ng/mL
  EC90, live virus neutralization: 15.9 ng/mL
  EC90, pseudovirus neutralization: 66 ng/mL
  EC90, pseudovirus neutralization, TMPRSS2-Vero E6, with isotype: 43 ng/mL
  EC90, pseudovirus neutralization, Vero E6, with isotype: 13 ng/mL
  Emax, pseudovirus neutralization (% neutralization): 99.9
  Emax, pseudovirus neutralization, TMPRSS2-Vero E6, with isotype (% neutralization): 99.7
  Emax, pseudovirus neutralization, Vero E6, with isotype (% neutralization): 99.7
[31]
  Emax, pseudovirus neutralization (% neutralization): 5.32
[32]
  EC50, pseudovirus neutralization: 0.12 ng/mL
  EC80, pseudovirus neutralization: 1.3 ng/mL
  EC90, pseudovirus neutralization: 5.6 ng/mL
  Emax, pseudovirus neutralization (% neutralization): 99.9
[33]
  EC50, pseudovirus neutralization: 0.2 ng/mL
  EC80, pseudovirus neutralization: 1.2 ng/mL
  EC90, pseudovirus neutralization: 3.6 ng/mL
  Emax, pseudovirus neutralization (% neutralization): 99.9
[34]
  Emax, pseudovirus neutralization (% neutralization): 72.2
[35]
  EC50, pseudovirus neutralization: 0.11 ng/mL
  EC80, pseudovirus neutralization: 1.7 ng/mL
  EC90, pseudovirus neutralization: 8.5 ng/mL
  Emax, pseudovirus neutralization (% neutralization): 99.8
[36]
  EC50, pseudovirus neutralization: 0.46 ng/mL
  EC80, pseudovirus neutralization: 6.3 ng/mL
  EC90, pseudovirus neutralization: 29 ng/mL
  Emax, pseudovirus neutralization (% neutralization): 99.5
[37]
  EC50, pseudovirus neutralization: 12 ng/mL
  EC80, pseudovirus neutralization: 360 ng/mL
  EC90, pseudovirus neutralization: 2600 ng/mL
  Emax, pseudovirus neutralization (% neutralization): 97.9
[38]
  EC50, pseudovirus neutralization: 0.65 ng/mL
  EC80, pseudovirus neutralization: 8.2 ng/mL
  EC90, pseudovirus neutralization: 36 ng/mL
  Emax, pseudovirus neutralization (% neutralization): 99.5
[39]
  Emax, pseudovirus neutralization (% neutralization): 53
  Emax, pseudovirus neutralization, TMPRSS2-Vero E6, with isotype (% neutralization): 40.5
  Emax, pseudovirus neutralization, Vero E6, with isotype (% neutralization): 59.1
[40]
  Emax, pseudovirus neutralization (% neutralization): 10.8
[12]
  EC50, pseudovirus neutralization, Vero E6, with isotype: 0.44 ng/mL

## sotrovimab VH/VL-huIgG1 (antibody)
[10]
  EC50, pseudovirus neutralization, Vero E6: 862 ng/mL
